Reference: the nanobody polyreactivity screen of Harvey et al. (2022)

Test: yeast display, Sf9 membrane polyspecificity reagent, FACS + sequencing; frameworks hold sequencing errors
Method in brief: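 Nanobodies came from a synthetic yeast display library in Saccharomyces cerevisiae BJ5465, induced with galactose for 36–48 hours and stained for 1 hour at 4 °C with 10% biotinylated, detergent-solubilized Sf9 membrane reagent. Cells were enriched on streptavidin microbeads and then FACS-sorted, with low and high (top ~1%) gates set on anti-HA fluorescence for expression and streptavidin fluorescence for reagent binding. Each polyreactivity label reflects the gate a clone came from. Genes were amplified by colony PCR, sequenced by MiSeq 2 × 250 and filtered by CDR length.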

Sequence	polyreactivity (PSR sort gate)
QVQLVESGGGLDQAGGSLRLSCPASGRIFPINAMGRYRQAPGKERELVAAISYSRGSTYYADSVKGRFTISRDNAKNTVYLQMNSLKPEDTAVYYCNARYPYSYYHRYYYWGQGTQVSVSS	high polyreactivity
QVKLVESGAGLVQAGGSLRLSCAASGIIFAQYTMGWYRQAPGKERELVAAINRNGGSTYYADSVKGRFTISRDNAKNTVYLQMNSLKPEDTAVYYCNAEALGFRYDYWGQGTQVTVSS	low polyreactivity
QVQLVEAGRGLVHAGGSLRLSCDPSGLTFSRYAMGWYRPAPGKESELVPAISSRGGTTYYADSVKGRFTISRDYAKNTVYLQMYSMKPEDTAVYYCAAGYITWGSGNWVVTPYDVWGQGTQVTVSS	high polyreactivity
QVQLVESGGGLVQAGGSLPLSCAASGFIYGGNAMGWYRQAPGKERELVAAISKSGGRTYYADSVKGRFTISRDNAKNTVYLQMNSLKPEDTAVYYCAAVPGRTAEDYGEDYWGQGTEVTVSS	high polyreactivity
QFQLVESVVGLVQAGGSLRLSCAASGTTFGVNDMRWYRQAPGKEREFVADITTSGGSTYYADSVKGRFTISRDNAKNTVYLQMNSLKPEDTAVYYCAADLWPFEHDDYWGQGTQVTVSS	low polyreactivity
QVQLVESGGGLVQAGGSLRLSCAASGRIFSRYAMGWYRQAPGKERELVATITISGGSTYYADSVKGRFTISRDNAKNTVYLQMNSLKPEDTAVYYCAAETTASYYKRTDDYDYWGQGTQVTVSS	low polyreactivity
QVQLVESGGGLVQAGGSLRLSCAASGRTFSKYAMGWYRQAPGKERELVAAITSGGGTYYADSVKGRFTNSRDNAKNTVYLQMNSLIPEDTGVYSCAVSVTTVSTYDYWGQGTQVTVSS	low polyreactivity
QVQLVESGGGLVQAGGSLRLSCAASGRIFSSNAMGWYRQAPGKARELVAAISTSGSTKYADSVKGRFTSSRDNAKNTVYLLMNSLKPEDTAVYYCAAKGYEYRYRYDYWGQGTQVTVSW	high polyreactivity
QVQLVETGGGLVQAGGSLRLSCAASGRIFLKYAMGWYRQAPGKERELVAAISRRGASTYYADSVKGRFTISRDNAKNTVYLQMNSLKPEDTAVYYCNARTSSGMDYWGQGTQVTVSS	high polyreactivity
QVQIVESGGGLVQAGGSLRLSCAASGRIFVVIAMGWYRQAPGKERELVATITRGASTYADSVKGRFTISRDNAKNTVYLQMNSLKPEDTAVYYCAAAKRPQVVRYDWTKLEYWGQGTQVTVSS	high polyreactivity
QVQLVESGGGLVQAGGSLRLSCAASGSIFNRNAMGWYRQAPGKERELVAAITGRGGSTYYADSVKGRFTISRDNAKNTVYLQMDSLKPEDTAVYYCAAETLAPRAYYYWGQGTQVTVSS	low polyreactivity
QVQLVQSGGCLVQAGGSLRLSCAASGSTIGDNAMGWYRQAPGKERELDAAIDYSGGSTRYADSVKGRFTISRDNAKNTVYLQMNSLKPEDTAVYYCAADYASGSRLFPKTLDYWGQGTQVTVSS	low polyreactivity
QVQLVDSGGGLVQAGGSLRLSCAASGRIFYRYALGWYRQAPGKERELVAAITRGGRTNYADSVKGRFTISRDNAQNTVYLQMNSLKPEDTAVYYCRPLWYGFDYWGQGTQVTVSS	high polyreactivity
QVQLVESGGGLVQAGGSLRLSCAASGSTFSGYAMGWYRQAPGKERELVATISGGGSTYYADSVKGRFTISRDNAKNTVYLQMNSLKPEDTAVFYCNAQGYGIFTSSLDYWGQGTQVTVSS	low polyreactivity
QVQLVESGGGLVQAGGSLRLSCAASGSTSQPYAMGWYRQAPGQERELVASITNGGITYYADSVKGRFTISRDNAKNTVYLQMNSLKPEDTAVYYCNTVSYTEFDYWGQGTQVTVSS	low polyreactivity
QVQLVESGAGLVQAGGSLRLSCAASGRIFPGYVMGWYRQAHGKERELVAAITRGGSTYYADSVKGRFTISRDNAKNTVYLQMNSLKPDDTAVYYCAAKHSHIHYNYWGQGTQVTVSS	low polyreactivity
QVQLVESGGGLVQAGGSLRLSCAASGRIFSWYAMGWYRQAPGKERELVADITNGGSTYYADSVKGRFTISRDNAKNTVYLQMNSLKPEDTAVYYCAAAYIHRLGRVLPSVYSIGRDYWGQGTQVTVSS	low polyreactivity
QVQLVESGGGLVQAGGSLRLSCAASGLTFYGYGMGWYRQAPGKERELVASITSGGNTYYADSVKGRFTISRDNAKNTVYLRMNSLKPEDTAVYYCAVTAIALYYSSGYYWGQGTQVTVSS	low polyreactivity
QVQLVESVGGLVQAGGSLRLRCAASGSTFYKNAMGRYRQAPGIERELVAGISRRGGRTYYADSVKGRFTISRDNAKNTVYLQMNSLKPEDTAVFYCNTGHEVDEYDYWGQGTQVTVSS	low polyreactivity
QVQLVESGGGLVQAGGSLRLSCAASGRTFWWYAMGWYRQAPGKEREFVAAISQRGTSTYYADSVKGRFTISRDNAKNTVYLQMNSLKPEDTAVYYCAAPLYRRWEVTYDYWGQGTQVTVSS	high polyreactivity
QVQLVESGGGLVQAGGSLRLSCAASGFTFWKYSMGWYRQAPGKERELVATITSSGDNTYYADSVKGRFTISRDNAKNTVYLQMNSLKPEDTAVYYCAADNGYHYNFDYWGQGTQVTVSS	low polyreactivity
QVQLVDSGGGLVQAGGSLRLSCAASGSTFALYAMGWYRQAPGKERELVAAITWSGTGTYYADSVKGRFTISRDNAKNTVYLQMNSLKPEDTAVYSCNAEYWWWGLGNDYWGQGTQVTVSS	low polyreactivity

Sequence	polyreactivity (PSR sort gate)
QLLLVESGGGLVQAGGSLRLSCATSGIILRYYAMGWYRQAPGKERELVAAISGSGTRTYYADSVKGRFTISRDNAKNTVYLQMNSLKPEDTAVYYCAAAHPATRYDYWGQGTQVTVSS	high polyreactivity
QVQLVESGGGLVQAGGSLRLSCAASGSTFRFYAMGWYRQAPGKERELVAGITGSGDSTYYADSVKGRFTISRDNAKNTVYLQMNSLKPEDTAVYYCNKRVVYRSSQFDYWGQGTQVTVSS	low polyreactivity
QVQLVESGGGLVQAGGSLRLSCAASGSIFPWYAMGWYRQAPGKERELVAAITISGGSTHYADTVKGRFTISRDNAKYTVYLQMNSLKPEDTAVYYCATPRYPSYDYWGQGTQVTVSS	low polyreactivity
QVQLVESGGGLVQAGGSLRLSFAASGSIFASNTMGWNSPEPGKERELVAAISSNGGSTYYADSVKGRFTISRDNAKNTFYLQMNSLKPEDTGVYYCNAELSTSELGGMYSWGQGTQVTVSS	low polyreactivity
QVHLVESGGGLVQAGGSLRLSCAASGSTFTRNVMGWYRQAPGKERELVASISRSGGRTYYADSVKGRFTISRDNAKNTVYLQMNSLKPEDTAVYYCAAKSFYYLDPYDYWGQGTQVTVSS	high polyreactivity
QVQLVESGGGLVQAGGSLRLSCAASGSIFISYAMGWYRQAPGKERELVAAITSGGRTNYADSVKGRFTISRDNAKNTVYLQMNSLKPEDTAVYYCAKRQSHSRKYDYWGQGTQVTVSS	low polyreactivity
QVQLVESGGGLVQAGGSLRLSCAPSGRIFSYFAMGWYRQAPGKERELVAAISGNGGSTYYADSVKGRFTISRDNAKNTVYLQMNSLKPEDTAVYYCAADWWSSDWAYLYPYSYDYWGQGTQVTVSS	low polyreactivity
QVQLVESGGGLVQAGGSLRLSCAASGFTFNRYAMGWYRQAPGKERELVARITRGGSTKYADSVKGRFTISRDNAKNTVYLEMNSLKPEDTAVYYCAADYGGFLVYDYWGQGTQVTVSS	high polyreactivity
QVQLLESGGGLVQAGGSLRLSCAASGYTFRYYTMGWYRQAPGKERELVAAISGSGGSTYYADSVKGRFTISRDTAKNTVYLQMNSLKPEDTAVYYCNRFYSTSRITQYEFDYWGQGTQVTVSS	high polyreactivity
QVQLVESGGGLVQAGGSLRLSCAASGIIFVKYAMGWYRQAPGKERELVAAITSGGSTYYADSVKGRFTISRDNAKNTVYLQMNSLKPDDTAVYYCNADSWFLYYFTINGYWGQGTQVTVSS	high polyreactivity
QVQLVESGGGLVQAGGSLRLSCAASGFIFFRNAMGWYRQAPGKERELVAAISGSGGSTYYADSVKGRFTISRDNAKNTVYLQLNSLKPEDTAVYYCAAAGPFNYDYWGQGTHVTVSS	high polyreactivity
QVQLVESGGGLVQAGGSLRLSCAASGRTLHSYAMGWYRQAPGKERELVAAISGGASTYADSVKGRFTISRDNAMITVYFQMNSLKPEDTAVYYCAADDDPVPTYEYDVWGQGTQVTVSS	low polyreactivity
QVQLVESGGGLVQAGGSLRLSCAASGSTFRGYAMGWYRQAPGKERELVASISWNGTSTYYADSVKGRFTISRDNAKNTVYLQMNSLKPEDTAVYYCNVRFNYRGTYDYWGQGTQVTVSS	low polyreactivity
QVQLVESGGGLVQAGGSLRLSCAASGINFGSNAMGWYRQAPGKERELVAAISKRGGNTYYADSVKGRFTISRDNAKNTVYLQMNSLKPEYTAVYYCATQQYLYAQKSYVEMDYWGQGTQVSVSS	high polyreactivity
QVQLVESGGGLVQAGGSLRISCAASGGTFQPYAMGWYRQAPGKERELVAAITSSDGSTYYADSVKWRFTISRDNAKNTVYLQMNSLKPEDTAVYYCNATIASGYGDRYVDTSHDYWGQGTQVTVSS	low polyreactivity
QVQLVESGGGLVQAGGSLRLSCAASGFTFDKNTMGWYRQAPGKERELVAAITRGGGSTYYADSVKGRFTISRDNAKNTVYLQMNSLKPEDTAVYYCAARYWTKRYRLLDYWGQGTQVTVSS	high polyreactivity
QVQLVESGGGLVQAGGSLRLSCAASGRIFLGYTMGWYRQAPGKERELVAAISKSGDSTYYADSVKGRFTISRDNAKNTVYLQMNSLKPEDTAVYYCAKDYGGRLYYYWGQGTQVTVSS	high polyreactivity
QVQLVESGGGLVQAGGSLRLSCAASGITFYYYAMGWYRQAPGKERELVAAITVNGGTTYYADSVKGRFTISRDNAKNTVYLQMNSLKPEDTAVYYCNADGTFEYDYWGQGTQVTVSS	low polyreactivity
QVQLVESGGGLVQAGASLRLSCAASGYTLDNYAMGWYRQAPWKERELVAGITFSGGSTFYADSVKGRFTISRDNAKNTVYLQMNRLKPEDTAVYYCAAEAEFQADHKYGYWGQGTQVTVSS	low polyreactivity
QVQLVESGGGLVQAGGSLRLSCAASGSIFSQYAMGWYRQAPGKERELVAAISGGGGSTSYADSVKGRFTISRDNAKNTVYLQMNSLKPDDTAVYYCAAYLYNRPYQLTGYYDGYGYWGQGTQVTVSS	low polyreactivity
QVQLVESGGGLVQAGGSLRLSCAASGLTFYHYAMGWYRQAPGKERELVADISSGGSTSYADSVKGRFTISRDNAKNTVYLQMNSLKPEDTAVFYCAADYTWERYHRQIFRLDYWGQGTQVTVSS	low polyreactivity
